From US20180155451A1 (published 2018)

Biological target: T1, FcγRIa (human, UniProt P12314 16-292)
T1 construct: extracellular domain; also called FcgRI; CD64
Test: SPR; vs GpH7-B3/GpL16-k0=100

T1 sequence (P12314 16-292): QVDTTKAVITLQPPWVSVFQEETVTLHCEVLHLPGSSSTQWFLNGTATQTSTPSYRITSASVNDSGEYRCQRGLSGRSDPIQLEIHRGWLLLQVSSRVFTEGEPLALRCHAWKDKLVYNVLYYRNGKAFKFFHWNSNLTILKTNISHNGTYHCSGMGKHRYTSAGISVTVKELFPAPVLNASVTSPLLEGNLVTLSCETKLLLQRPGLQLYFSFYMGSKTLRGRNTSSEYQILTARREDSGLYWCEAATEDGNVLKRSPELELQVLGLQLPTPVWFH

| Ho/Con_1a | Binder |
| --- | --- |
| 105 % of control | GpH7-B3 variant A330_14T/GpL16-k0 (antibody, human IgG1, kappa, homodimerized; also called Ho Ab A330_14T) heavy: not shown light: DIVMTQSPLSLPVTPGEPASISCQASESLVHSNRNTYLHWYLQKPGQSPQLLIYKVSNRFSGVPDRFSGSGSGTDFTLKISRVEAEDVGVYYCSQNTHVPPTFGQGTKVEIERTVAAPSVFIFPPSDEQLKSGTASVVCLLNNFYPREAKVQWKVDNALQSGNSQESVTEQDSKDSTYSLSSTLTLSKADYEKHKVYACEVTHQGLSSPVTKSFNRGEC |
| 95.4 % of control | GpH7-B3 variant E269_03V/GpL16-k0 (antibody, human IgG1, kappa, homodimerized; also called Ho Ab E269_03V) heavy: not shown light: DIVMTQSPLSLPVTPGEPASISCQASESLVHSNRNTYLHWYLQKPGQSPQLLIYKVSNRFSGVPDRFSGSGSGTDFTLKISRVEAEDVGVYYCSQNTHVPPTFGQGTKVEIERTVAAPSVFIFPPSDEQLKSGTASVVCLLNNFYPREAKVQWKVDNALQSGNSQESVTEQDSKDSTYSLSSTLTLSKADYEKHKVYACEVTHQGLSSPVTKSFNRGEC |
| 108 % of control | GpH7-B3 variant A330_09D/GpL16-k0 (antibody, human IgG1, kappa, homodimerized; also called Ho Ab A330_09D) heavy: not shown light: DIVMTQSPLSLPVTPGEPASISCQASESLVHSNRNTYLHWYLQKPGQSPQLLIYKVSNRFSGVPDRFSGSGSGTDFTLKISRVEAEDVGVYYCSQNTHVPPTFGQGTKVEIERTVAAPSVFIFPPSDEQLKSGTASVVCLLNNFYPREAKVQWKVDNALQSGNSQESVTEQDSKDSTYSLSSTLTLSKADYEKHKVYACEVTHQGLSSPVTKSFNRGEC |
| 104 % of control | GpH7-B3 variant A330_16H/GpL16-k0 (antibody, human IgG1, kappa, homodimerized; also called Ho Ab A330_16H) heavy: not shown light: DIVMTQSPLSLPVTPGEPASISCQASESLVHSNRNTYLHWYLQKPGQSPQLLIYKVSNRFSGVPDRFSGSGSGTDFTLKISRVEAEDVGVYYCSQNTHVPPTFGQGTKVEIERTVAAPSVFIFPPSDEQLKSGTASVVCLLNNFYPREAKVQWKVDNALQSGNSQESVTEQDSKDSTYSLSSTLTLSKADYEKHKVYACEVTHQGLSSPVTKSFNRGEC |

The next lines start with the binder.

| Binder | Ho/Con_1a |
| --- | --- |
| GpH7-B3 variant A330_08L/GpL16-k0 (antibody, human IgG1, kappa, homodimerized; also called Ho Ab A330_08L; GpH7-B3-20-08L/GpL16-k0) heavy: not shown light: DIVMTQSPLSLPVTPGEPASISCQASESLVHSNRNTYLHWYLQKPGQSPQLLIYKVSNRFSGVPDRFSGSGSGTDFTLKISRVEAEDVGVYYCSQNTHVPPTFGQGTKVEIERTVAAPSVFIFPPSDEQLKSGTASVVCLLNNFYPREAKVQWKVDNALQSGNSQESVTEQDSKDSTYSLSSTLTLSKADYEKHKVYACEVTHQGLSSPVTKSFNRGEC | 106 % of control |
| GpH7-B3 variant E269_05P/GpL16-k0 (antibody, human IgG1, kappa, homodimerized; also called Ho Ab E269_05P) heavy: not shown light: DIVMTQSPLSLPVTPGEPASISCQASESLVHSNRNTYLHWYLQKPGQSPQLLIYKVSNRFSGVPDRFSGSGSGTDFTLKISRVEAEDVGVYYCSQNTHVPPTFGQGTKVEIERTVAAPSVFIFPPSDEQLKSGTASVVCLLNNFYPREAKVQWKVDNALQSGNSQESVTEQDSKDSTYSLSSTLTLSKADYEKHKVYACEVTHQGLSSPVTKSFNRGEC | 95.7 % of control |
| GpH7-B3 variant E269_02A/GpL16-k0 (antibody, human IgG1, kappa, homodimerized; also called Ho Ab E269_02A) heavy: not shown light: DIVMTQSPLSLPVTPGEPASISCQASESLVHSNRNTYLHWYLQKPGQSPQLLIYKVSNRFSGVPDRFSGSGSGTDFTLKISRVEAEDVGVYYCSQNTHVPPTFGQGTKVEIERTVAAPSVFIFPPSDEQLKSGTASVVCLLNNFYPREAKVQWKVDNALQSGNSQESVTEQDSKDSTYSLSSTLTLSKADYEKHKVYACEVTHQGLSSPVTKSFNRGEC | 96.2 % of control |
| GpH7-B3 variant A330_11K/GpL16-k0 (antibody, human IgG1, kappa, homodimerized; also called Ho Ab A330_11K) heavy: not shown light: DIVMTQSPLSLPVTPGEPASISCQASESLVHSNRNTYLHWYLQKPGQSPQLLIYKVSNRFSGVPDRFSGSGSGTDFTLKISRVEAEDVGVYYCSQNTHVPPTFGQGTKVEIERTVAAPSVFIFPPSDEQLKSGTASVVCLLNNFYPREAKVQWKVDNALQSGNSQESVTEQDSKDSTYSLSSTLTLSKADYEKHKVYACEVTHQGLSSPVTKSFNRGEC | 94.1 % of control |
| GpH7-B3 variant E269_01G/GpL16-k0 (antibody, human IgG1, kappa, homodimerized; also called Ho Ab E269_01G) heavy: not shown light: DIVMTQSPLSLPVTPGEPASISCQASESLVHSNRNTYLHWYLQKPGQSPQLLIYKVSNRFSGVPDRFSGSGSGTDFTLKISRVEAEDVGVYYCSQNTHVPPTFGQGTKVEIERTVAAPSVFIFPPSDEQLKSGTASVVCLLNNFYPREAKVQWKVDNALQSGNSQESVTEQDSKDSTYSLSSTLTLSKADYEKHKVYACEVTHQGLSSPVTKSFNRGEC | 97.4 % of control |
